# Results published in patent publication US20050069907A1, “Methods for using double-mutant RNA polymerases with reduced discrimination between non-canonical and canonical nucleoside triphosphates” (priority 2002, published 2005).
# Tests used:
# Assay type in all cases: biochemical
# [1] = system: supercoiled pT75; experiment: Relative transcription activity with different rNTP/dNTP mixes
# Experimental: (§1) Transcription reactions: Transcription reactions were carried out in 40 mM Tris-Cl pH 8.0, 15 mM MgCl2, and 5 mM DTT or 20 mM Manganese Citrate pH 8.0, 5 mM DTT at 37° C. Template, polymerase, and NTP concentrations were as indicated in the legends to the figures and tables. Relative activity determinations were made by taking 4 μl aliquots of reactions at 5, 10, and 20 minute time points and spotting on to DE81 filter paper. Unincorporated nucleotides were separated from incorporated nucleotides by washing the filter paper with 0.5 M KH2PO4 pH 7.0 and retained radioactive nucleotide was quantitated with a Molecular Dynamics phosphorimager. To evaluate rNTP/dNTP selectivity, reactions were run with 4 rNTPs and pT75 as template and α-P^32 rNTPs or α-P^32 dNTPs were used to label the transcripts. The relative rate of incorporation of an rNTP vs. its cognate dNTP was determined from the relative percentages of labeled rNTP vs. dNTP incorporated into DE81 retainable RNA at 5, 10, and 20 minute time points. Apparent miscoding frequencies were determined similarly, though in this instance the template was a single-stranded homopolymer and the reaction contained the complementary unlabeled rNTP, and complementary α-P^32 rNTP or one of the 3 non-complementary α-P^32 rNTPs. The relative percentages of labeled complementary vs. non-complementary rNTPs incorporated at 5, 10 and 20 minute time points gave an apparent miscoding rate. The rNTP/dNTP selectivity assay was used to test the following T7 RNAP mutants for effects on substrate discrimination: D537S, D537E, S539A, R5S1S, D552S, R627S, K631S, L637A, Y639S, Y639F, Y639A, G640A, F644A, G645A, Q649S, […], H811S, H811A, D812A, D812E, D812S, D812N, D879E+ΔF882+ΔA883, D879E+A881T+ΔA883, D879E+F884+A885, D879E+F882Y, D879E+ΔA883, D879E+F882W, D879E.
# Relative activity of the W.T. and Y639F polymerases with different NTP combinations: The relative activities of the Y639F and W.T. polymerases with supercoiled pT75 as a template and various combinations of rNTPs/dNTPs were measured in both Mg^2+ and Mn^2+ buffers (see, Table II,).
# [2] = system: poly(dI)·poly(dC); experiment: Relative activity on poly(dI)·poly(dC)
# Experimental: as §1
# DNA and RNA synthesis on homopolymeric templates: T7 RNAP will synthesize poly(rG) RNAs on poly(dC) templates (Bonner, et al., 1994; Ikeda and Richardson 1987). The activity of the W.T. and mutant polymerases were measured on poly(dI)-poly(dC) with rGTP, dGTP, dGTP+rGMP (see, Table III).
# Numbers give mean and range from 3 experiments. Templates were at 0.2 mg/ml, polymerases at 10^-8 M. Labeling NTPs were α-P^32 rGTP, α-P^32 dGTP, α-P^32 rATP, α-P^32 dATP, as appropriate. rNTPs or rNMPs at 0.5 mM; dNTPs at 1 mM.
# [3] = system: poly(rC); experiment: Activity on an RNA (poly(rC)) template
# Experimental: T7 RNAP as a reverse transcriptase or RNA replicase which initiates de novo: It has been reported that T7 RNAP can use both RNA and DNA templates (Konarska and Sharp, 1989). Therefore, it was determined if the Y639F mutant would use dNTPs when transcribing an RNA template (poly(rC), see Table IV).
# Numbers give mean and range from 3 experiments. Template was at 0.2 mg/ml, polymerases at 10^−6 M. Labeling NTPs were α-P^32 rGTP, α-P^32 dGTP.
# [4] = system: pT75; experiment: Activity with NTPs containing different 2′-substituents; parameters: unit not given here
# Experimental: Activity was determined with pT75 as template but with one of the rNTPs replaced with a dNTP or a 2′-modified NTP. The labeling NTP was UTP (in reactions with 2′-modified CTPs or ATPs) or CTP (in reactions with 2′-modified UTPs). Y639F and Y639M represent enzymes with substitutions of the wild-type (W.T.) tyrosine at position 639 by phenyalanine (F) or methionine (M), respectively.
# [5] = 1 rNTP, dCTP, dATP, dGTP, with rGMP, Mg^2+
# [6] = 1 rNTP, dCTP, dATP, dGTP, with rGMP, Mn^2+
# [7] = 1 rNTP, dCTP, dATP, dTTP, Mg^2+
# [8] = 1 rNTP, dCTP, dATP, dTTP, Mn^2+
# [9] = 1 rNTP, dCTP, dATP, dUTP, Mg^2+
# [10] = 1 rNTP, dCTP, dATP, dUTP, Mn^2+
# [11] = 1 rNTP, dTTP, dATP, dGTP, with rGMP, Mg^2+
# [12] = 1 rNTP, dTTP, dATP, dGTP, with rGMP, Mn^2+
# [13] = 1 rNTP, dTTP, dCTP, dGTP, with rGMP, Mg^2+
# [14] = 1 rNTP, dTTP, dCTP, dGTP, with rGMP, Mn^2+
# [15] = 2 rNTPs, dATP, dGTP, rGMP, Mg^2+
# [16] = 2 rNTPs, dATP, dGTP, rGMP, Mn^2+
# [17] = 2 rNTPs, dCTP, dGTP, rGMP, Mg^2+
# [18] = 2 rNTPs, dCTP, dGTP, rGMP, Mn^2+
# [19] = 2 rNTPs, dTTP, dGTP, rGMP, Mg^2+
# [20] = 2 rNTPs, dTTP, dGTP, rGMP, Mn^2+
# [21] = rGTP, mean and range from 3 experiments
# [22] = .5 mM GTP, mean and range from 3 experiments
substance,measurement,setting,value
W.T.: wild-type T7 RNA polymerase [reference compound],Relative activity,[1]; [5],<.5
same,Relative activity,[1]; [6],<.5
same,Relative activity,[1]; [7],<.5
same,Relative activity,[1]; [8],<.5
same,Relative activity,[1]; [9],<.5
same,Relative activity,[1]; [10],<.5
same,Relative activity,[1]; [11],<.5
same,Relative activity,[1]; [12],<.5
same,Relative activity,[1]; [13],<.5
same,Relative activity,[1]; [14],<.5
same,Relative activity,[1]; [15],<.5
same,Relative activity,[1]; [16],<.5
same,Relative activity,"[1]; 2 rNTPs, dATP, dTTP, Mg^2+",<.5
same,Relative activity,"[1]; 2 rNTPs, dATP, dTTP, Mn^2+",<.5
same,Relative activity,"[1]; 2 rNTPs, dCTP, dATP, Mg^2+",<.5
same,Relative activity,"[1]; 2 rNTPs, dCTP, dATP, Mn^2+",.5-.9
same,Relative activity,[1]; [17],<.5
same,Relative activity,[1]; [18],<.5
same,Relative activity,"[1]; 2 rNTPs, dCTP, dTTP, Mg^2+",2
same,Relative activity,"[1]; 2 rNTPs, dCTP, dTTP, Mn^2+",5-7
same,Relative activity,"[1]; 2 rNTPs, dCTP, dUTP, Mg^2+",2-6
same,Relative activity,"[1]; 2 rNTPs, dCTP, dUTP, Mn^2+",3
same,Relative activity,[1]; [19],<.5
same,Relative activity,[1]; [20],<.5
same,Relative activity,"[1]; 3 rNTPs, dATP, Mg^2+",1-2
same,Relative activity,"[1]; 3 rNTPs, dATP, Mn^2+",1-2
same,Relative activity,"[1]; 3 rNTPs, dCTP, Mg^2+",4-9
same,Relative activity,"[1]; 3 rNTPs, dCTP, Mn^2+",15
same,Relative activity,"[1]; 3 rNTPs, dGTP, rGMP, Mg^2+",<.5
same,Relative activity,"[1]; 3 rNTPs, dGTP, rGMP, Mn^2+",1-3
same,Relative activity,"[1]; 3 rNTPs, dGTP, Mg^2+",<.5
same,Relative activity,"[1]; 3 rNTPs, dGTP, Mn^2+",.5-2
same,Relative activity,"[1]; 3 rNTPs, dTTP, Mg^2+",11-13
same,Relative activity,"[1]; 3 rNTPs, dTTP, Mn^2+",7-8
same,Relative activity,"[1]; 3 rNTPs, dUTP, Mg^2+",9-11
same,Relative activity,"[1]; 3 rNTPs, dUTP, Mn^2+",10-11
same,Relative activity,"[1]; 4 dNTPs, rGMP, Mg^2+",<.5
same,Relative activity,"[1]; 4 dNTPs, rGMP, Mn^2+",<.5
same,Relative activity,"[1]; 4 rNTPs, Mg^2+",200
same,Relative activity,"[1]; 4 rNTPs, Mn^2+",21-23
same,Relative activity on poly(dI)·poly(dC),[2]; dGTP,7.4 (5.4-12.5)
same,Relative activity on poly(dI)·poly(dC),[2]; dGTP + rGMP,25 (20-27)
same,Relative activity on poly(dI)·poly(dC),[2]; [21],1000
same,Activity on poly(rC) template,[3]; 1 mM GTP,<.5
same,Activity on poly(rC) template,[3]; 1 mM dGTP + .5 mM GMP,<.5
same,Activity on poly(rC) template,[3]; [22],1000
same,Activity on poly(rC),[3]; dGTP or dGTP+rGMP,not measurably active
same,Activity,[4]; 2′-F-ATP replacing ATP,6.6 ± .12
same,Activity,[4]; 2′-F-CTP replacing CTP,3.4 ± .22
same,Activity,[4]; 2′-F-UTP replacing UTP,3.1 ± .14
same,Activity,[4]; 2′-NH2-ATP replacing ATP,18 ± .39
same,Activity,[4]; 2′-NH2-CTP replacing CTP,34 ± .86
same,Activity,[4]; 2′-NH2-UTP replacing UTP,5.9 ± .27
same,Activity,[4]; 2′-dATP replacing ATP,2.7 ± .28
same,Activity,[4]; 2′-dCTP replacing CTP,1.6 ± .16
same,Activity,[4]; 2′-dUTP replacing UTP,2.4 ± .11
same,Activity,[4]; ATP,100
same,Activity,[4]; CTP,100
same,Activity,[4]; UTP,100
Y639F: T7 RNAP with wild-type tyrosine at position 639 substituted by phenylalanine,Relative activity,[1]; [5],3-5
same,Relative activity,[1]; [6],1-2
same,Relative activity,[1]; [7],12-14
same,Relative activity,[1]; [8],.7-2
same,Relative activity,[1]; [9],10-11
same,Relative activity,[1]; [10],2-3
same,Relative activity,[1]; [11],11
same,Relative activity,[1]; [12],1.5-2
same,Relative activity,[1]; [13],10-13
same,Relative activity,[1]; [14],2-4
same,Relative activity,[1]; [15],5-6
same,Relative activity,[1]; [16],1-1.5
same,Relative activity,"[1]; 2 rNTPs, dATP, dTTP, Mg^2+",11-14
same,Relative activity,"[1]; 2 rNTPs, dATP, dTTP, Mn^2+",3-4
same,Relative activity,"[1]; 2 rNTPs, dCTP, dATP, Mg^2+",20-29
same,Relative activity,"[1]; 2 rNTPs, dCTP, dATP, Mn^2+",4-7
same,Relative activity,[1]; [17],11-14
same,Relative activity,[1]; [18],2-5
same,Relative activity,"[1]; 2 rNTPs, dCTP, dTTP, Mg^2+",30
same,Relative activity,"[1]; 2 rNTPs, dCTP, dTTP, Mn^2+",5
same,Relative activity,"[1]; 2 rNTPs, dCTP, dUTP, Mg^2+",27-29
same,Relative activity,"[1]; 2 rNTPs, dCTP, dUTP, Mn^2+",4-7
same,Relative activity,[1]; [19],13-15
same,Relative activity,[1]; [20],3-6
same,Relative activity,"[1]; 3 rNTPs, dATP, Mg^2+",73
same,Relative activity,"[1]; 3 rNTPs, dATP, Mn^2+",2-3
same,Relative activity,"[1]; 3 rNTPs, dCTP, Mg^2+",86
same,Relative activity,"[1]; 3 rNTPs, dCTP, Mn^2+",7-11
same,Relative activity,"[1]; 3 rNTPs, dGTP, rGMP, Mg^2+",95-109
same,Relative activity,"[1]; 3 rNTPs, dGTP, rGMP, Mn^2+",1.4-2.5
same,Relative activity,"[1]; 3 rNTPs, dGTP, Mg^2+",43-63
same,Relative activity,"[1]; 3 rNTPs, dGTP, Mn^2+",3
same,Relative activity,"[1]; 3 rNTPs, dTTP, Mg^2+",90-96
same,Relative activity,"[1]; 3 rNTPs, dTTP, Mn^2+",4
same,Relative activity,"[1]; 3 rNTPs, dUTP, Mg^2+",82-91
same,Relative activity,"[1]; 3 rNTPs, dUTP, Mn^2+",7-8
same,Relative activity,"[1]; 4 dNTPs, rGMP, Mg^2+",<.5
same,Relative activity,"[1]; 4 dNTPs, rGMP, Mn^2+",.5
same,Relative activity,"[1]; 4 rNTPs, Mg^2+",200
same,Relative activity,"[1]; 4 rNTPs, Mn^2+",9
same,Relative activity on poly(dI)·poly(dC),[2]; dGTP,964 (684-1257)
same,Relative activity on poly(dI)·poly(dC),[2]; dGTP + rGMP,1070 (816-1457)
same,Relative activity on poly(dI)·poly(dC),[2]; [21],1000
same,Activity on poly(rC) template,[3]; 1 mM GTP,62 (48-80)
same,Activity on poly(rC) template,[3]; 1 mM dGTP + .5 mM GMP,116 (90-148)
same,Activity on poly(rC) template,[3]; [22],505 (358-733)
same,Reduction of activity on poly(rC),[3]; with dGTP,~8 fold
same,Reduction of activity on poly(rC),[3]; with dGTP+rGMP,~4 fold
same,Activity,[4]; 2′-F-ATP replacing ATP,50 ± 1.4
same,Activity,[4]; 2′-F-CTP replacing CTP,63 ± 3.1
same,Activity,[4]; 2′-F-UTP replacing UTP,73 ± 2.6
same,Activity,[4]; 2′-NH2-ATP replacing ATP,21 ± .75
same,Activity,[4]; 2′-NH2-CTP replacing CTP,60 ± 2.5
same,Activity,[4]; 2′-NH2-UTP replacing UTP,12 ± .41
same,Activity,[4]; 2′-dATP replacing ATP,40 ± 1.3
same,Activity,[4]; 2′-dCTP replacing CTP,57 ± 1.7
same,Activity,[4]; 2′-dUTP replacing UTP,46 ± 2.4
same,Activity,[4]; ATP,96 ± 3.0
same,Activity,[4]; CTP,103 ± 2.3
same,Activity,[4]; UTP,95 ± 6.7
